T1: Chimeric protein #3 (mPro-mCat-hC-term-mmh) (mouse; human)
T1 chain: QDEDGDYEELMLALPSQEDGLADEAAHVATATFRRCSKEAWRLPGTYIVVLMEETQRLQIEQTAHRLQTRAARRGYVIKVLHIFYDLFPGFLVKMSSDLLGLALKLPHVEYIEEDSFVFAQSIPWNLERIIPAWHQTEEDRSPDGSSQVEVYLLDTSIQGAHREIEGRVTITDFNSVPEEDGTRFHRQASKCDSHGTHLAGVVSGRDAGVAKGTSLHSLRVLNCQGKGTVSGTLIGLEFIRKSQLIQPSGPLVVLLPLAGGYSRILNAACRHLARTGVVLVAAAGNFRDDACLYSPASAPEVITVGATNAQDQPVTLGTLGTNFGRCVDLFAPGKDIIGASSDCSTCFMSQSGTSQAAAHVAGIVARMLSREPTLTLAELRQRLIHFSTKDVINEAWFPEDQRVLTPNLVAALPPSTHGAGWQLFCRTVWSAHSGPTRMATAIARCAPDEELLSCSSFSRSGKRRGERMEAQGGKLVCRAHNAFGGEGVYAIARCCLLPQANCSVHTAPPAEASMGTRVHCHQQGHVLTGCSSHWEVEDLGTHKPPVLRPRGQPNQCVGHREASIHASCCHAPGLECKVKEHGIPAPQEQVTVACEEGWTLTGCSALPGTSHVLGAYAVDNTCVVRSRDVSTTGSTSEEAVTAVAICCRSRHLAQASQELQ

B1: H1M300N, fully human version (antibody, V domains shown)
VH: EMQLVESGGGLVQPGGSLRLSCAASGFTFSSHWMKWVRQAPGKGLEWVANINQDGSEKYYVDSVKGRFTISRDNAKNSLFLQMNSLRAEDTAVYYCARDIVLMVYDMDYYYYGMDVWGQGTTVTVSS
VL: not shown
notes: Fully human mAb made in CHO cells
B2: H1M300 (antibody, V domains shown)
VH: B1 VH
VL: not shown
notes: Hybridoma-derived chimeric antibody (human variable, mouse constant)

Tests used:
[1] = target: hPCSK9(R215E), mmh-tagged (human, UniProt Q8NBP7 31-692); assay: SPR, mAb captured, 25C
[2] = target: T1, Chimeric protein #3 …; assay: ELISA, mAb coated, 1.2 nM protein
From the text: After 1 hr binding at RT, the plate was washed and bound test protein detected using HRP-conjugated anti-myc polyclonal antibody (++=OD>1.0; +=OD 0.4-1.0; −=OD<0.4).

Binder | T1/2 [1] [h] | OD [2] [od]
B1 | 1.28 | –
B2 | – | < 0.4

Reference: patent publication US12269897
